From patent US20030166536A1

What was measured:
Test in all cases: cell-based or functional assay
[1] = biological target: B-domainless human factor VIII (human) (UniProt P00451)
[2] = biological target: HP9, hybrid human/porcine B-domainless factor VIII, porcine substitution 484-508 (human; porcine) (UniProt P00451)
[3] = biological target: human B-domainless factor VIII V495 → A (human) (UniProt P00451)
[4] = biological target: HP13, hybrid human/porcine B-domainless factor VIII, porcine substitution 484-488 (human; porcine) (UniProt P00451)
[5] = biological target: human B-domainless factor VIII P485 → A (human) (UniProt P00451)
[6] = biological target: HP10, hybrid human/porcine B-domainless factor VIII, porcine substitution 373-403 (human; porcine) (UniProt P00451)
[7] = biological target: human B-domainless factor VIII R484 → A (human) (UniProt P00451)
[8] = biological target: human B-domainless factor VIII F501 → A (human) (UniProt P00451)
[9] = biological target: HP5, hybrid human/porcine B-domainless factor VIII, porcine substitution 373-508 (human; porcine) (UniProt P00451)
[10] = biological target: human B-domainless factor VIII I508 → A (human) (UniProt P00451)
[11] = biological target: human B-domainless factor VIII P492 → A (human) (UniProt P00451)
[12] = biological target: human B-domainless factor VIII Y487 → A (human) (UniProt P00451)
[13] = biological target: human B-domainless factor VIII R490 → A (human) (UniProt P00451)
[14] = biological target: human B-domainless factor VIII S488 → A (human) (UniProt P00451)
[15] = biological target: HP6, hybrid human/porcine B-domainless factor VIII, porcine substitution 373-444 (human; porcine) (UniProt P00451)
[16] = biological target: HP8, hybrid human/porcine B-domainless factor VIII, porcine substitution 373-483 (human; porcine) (UniProt P00451)
[17] = biological target: HP12, hybrid human/porcine B-domainless factor VIII, porcine substitution 489-508 (human; porcine) (UniProt P00451)
[18] = biological target: human B-domainless factor VIII R489 → A (human) (UniProt P00451)
[19] = biological target: HP4, hybrid human/porcine B-domainless factor VIII, porcine substitution 373-540 (human; porcine) (UniProt P00451)
[20] = biological target: HP11, hybrid human/porcine B-domainless factor VIII, porcine substitution 404-508 (human; porcine) (UniProt P00451)
[21] = biological target: HP7, hybrid human/porcine B-domainless factor VIII, porcine substitution 445-508 (human; porcine) (UniProt P00451)
[22] = biological target: porcine A1/A3-C1-C2 dimer of factor VIIIa (porcine) (UniProt P12263)
[23] = biological target: human A1/A3-C1-C2 dimer of factor VIIIa (human) (UniProt P00451)

human B-domainless factor VIII R489 → A (human), sequence (P00451 other isoform, or with tags, fused parts or gaps): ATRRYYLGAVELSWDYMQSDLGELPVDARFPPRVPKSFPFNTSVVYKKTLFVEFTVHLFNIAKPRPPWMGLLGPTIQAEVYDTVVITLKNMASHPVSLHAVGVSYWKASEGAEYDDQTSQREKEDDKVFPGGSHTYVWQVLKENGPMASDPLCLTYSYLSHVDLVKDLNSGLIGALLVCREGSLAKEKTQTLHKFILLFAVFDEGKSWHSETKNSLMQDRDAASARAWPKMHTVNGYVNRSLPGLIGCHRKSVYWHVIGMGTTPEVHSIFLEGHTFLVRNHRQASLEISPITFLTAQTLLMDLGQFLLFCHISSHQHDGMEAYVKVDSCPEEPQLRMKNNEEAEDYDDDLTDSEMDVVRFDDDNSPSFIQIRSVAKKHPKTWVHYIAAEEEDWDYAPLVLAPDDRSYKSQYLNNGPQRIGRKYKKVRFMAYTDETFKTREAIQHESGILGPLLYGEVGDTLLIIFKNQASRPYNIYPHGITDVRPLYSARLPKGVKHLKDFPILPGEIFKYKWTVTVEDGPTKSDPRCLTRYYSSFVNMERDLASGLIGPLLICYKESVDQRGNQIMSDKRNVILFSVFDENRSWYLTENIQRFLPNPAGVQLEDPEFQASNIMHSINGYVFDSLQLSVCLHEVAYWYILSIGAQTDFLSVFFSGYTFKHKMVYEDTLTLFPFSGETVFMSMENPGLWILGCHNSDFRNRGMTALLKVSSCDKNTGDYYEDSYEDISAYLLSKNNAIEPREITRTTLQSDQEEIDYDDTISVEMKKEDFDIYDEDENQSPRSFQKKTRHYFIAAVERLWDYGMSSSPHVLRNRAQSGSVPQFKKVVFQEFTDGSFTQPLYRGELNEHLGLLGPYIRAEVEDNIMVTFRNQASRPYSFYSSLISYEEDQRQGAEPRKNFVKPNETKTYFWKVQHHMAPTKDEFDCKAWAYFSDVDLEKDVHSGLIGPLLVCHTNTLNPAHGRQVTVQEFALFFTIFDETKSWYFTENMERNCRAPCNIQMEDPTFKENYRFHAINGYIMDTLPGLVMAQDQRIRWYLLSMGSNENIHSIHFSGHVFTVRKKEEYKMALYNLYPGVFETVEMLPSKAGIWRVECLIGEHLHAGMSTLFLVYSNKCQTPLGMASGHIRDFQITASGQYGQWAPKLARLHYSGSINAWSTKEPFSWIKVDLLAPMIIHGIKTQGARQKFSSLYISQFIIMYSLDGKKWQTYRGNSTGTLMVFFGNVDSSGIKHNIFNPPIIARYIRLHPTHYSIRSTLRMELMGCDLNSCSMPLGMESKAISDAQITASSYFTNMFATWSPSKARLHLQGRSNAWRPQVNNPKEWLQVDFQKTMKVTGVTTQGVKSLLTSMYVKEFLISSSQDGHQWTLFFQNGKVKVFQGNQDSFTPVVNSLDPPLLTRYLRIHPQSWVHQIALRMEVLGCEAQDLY
human B-domainless factor VIII V495 → A (human), sequence (P00451 other isoform, or with tags, fused parts or gaps): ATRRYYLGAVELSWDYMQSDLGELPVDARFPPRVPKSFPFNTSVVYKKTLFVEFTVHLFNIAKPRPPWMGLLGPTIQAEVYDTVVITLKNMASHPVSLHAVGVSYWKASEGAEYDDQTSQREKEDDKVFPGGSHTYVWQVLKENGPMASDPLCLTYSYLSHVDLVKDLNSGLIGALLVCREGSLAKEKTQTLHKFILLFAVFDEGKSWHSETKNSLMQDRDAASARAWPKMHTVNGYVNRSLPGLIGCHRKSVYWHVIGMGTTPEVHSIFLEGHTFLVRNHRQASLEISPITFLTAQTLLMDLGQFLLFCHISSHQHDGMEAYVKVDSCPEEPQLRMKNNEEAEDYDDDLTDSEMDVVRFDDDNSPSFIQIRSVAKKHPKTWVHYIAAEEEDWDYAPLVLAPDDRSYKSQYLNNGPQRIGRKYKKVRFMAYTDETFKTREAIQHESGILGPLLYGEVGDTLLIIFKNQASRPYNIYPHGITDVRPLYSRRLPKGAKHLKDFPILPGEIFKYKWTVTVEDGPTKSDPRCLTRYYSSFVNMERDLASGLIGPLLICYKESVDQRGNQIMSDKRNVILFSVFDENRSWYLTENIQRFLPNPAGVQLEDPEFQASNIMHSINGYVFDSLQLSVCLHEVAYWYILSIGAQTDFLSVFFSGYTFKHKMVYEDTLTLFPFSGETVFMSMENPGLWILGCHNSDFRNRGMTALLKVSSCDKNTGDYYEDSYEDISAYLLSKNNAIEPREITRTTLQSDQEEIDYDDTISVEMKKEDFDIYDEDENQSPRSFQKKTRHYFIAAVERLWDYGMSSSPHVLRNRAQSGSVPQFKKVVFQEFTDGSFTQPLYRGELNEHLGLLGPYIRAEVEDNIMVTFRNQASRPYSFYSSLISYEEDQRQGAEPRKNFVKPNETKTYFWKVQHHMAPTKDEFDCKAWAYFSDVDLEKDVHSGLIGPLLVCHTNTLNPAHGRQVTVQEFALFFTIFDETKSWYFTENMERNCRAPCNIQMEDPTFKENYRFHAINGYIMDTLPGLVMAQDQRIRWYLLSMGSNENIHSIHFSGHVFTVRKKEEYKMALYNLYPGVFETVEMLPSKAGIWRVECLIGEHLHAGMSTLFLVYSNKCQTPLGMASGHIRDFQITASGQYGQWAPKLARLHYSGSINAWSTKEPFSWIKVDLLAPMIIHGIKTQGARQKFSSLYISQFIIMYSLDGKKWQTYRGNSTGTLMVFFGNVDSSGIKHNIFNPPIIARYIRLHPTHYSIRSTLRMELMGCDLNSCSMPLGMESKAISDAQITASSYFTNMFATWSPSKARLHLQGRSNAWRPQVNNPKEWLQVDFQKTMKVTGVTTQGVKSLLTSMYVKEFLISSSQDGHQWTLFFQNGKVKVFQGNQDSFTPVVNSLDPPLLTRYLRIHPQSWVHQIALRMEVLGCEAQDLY
human B-domainless factor VIII P485 → A (human), sequence (P00451 other isoform, or with tags, fused parts or gaps): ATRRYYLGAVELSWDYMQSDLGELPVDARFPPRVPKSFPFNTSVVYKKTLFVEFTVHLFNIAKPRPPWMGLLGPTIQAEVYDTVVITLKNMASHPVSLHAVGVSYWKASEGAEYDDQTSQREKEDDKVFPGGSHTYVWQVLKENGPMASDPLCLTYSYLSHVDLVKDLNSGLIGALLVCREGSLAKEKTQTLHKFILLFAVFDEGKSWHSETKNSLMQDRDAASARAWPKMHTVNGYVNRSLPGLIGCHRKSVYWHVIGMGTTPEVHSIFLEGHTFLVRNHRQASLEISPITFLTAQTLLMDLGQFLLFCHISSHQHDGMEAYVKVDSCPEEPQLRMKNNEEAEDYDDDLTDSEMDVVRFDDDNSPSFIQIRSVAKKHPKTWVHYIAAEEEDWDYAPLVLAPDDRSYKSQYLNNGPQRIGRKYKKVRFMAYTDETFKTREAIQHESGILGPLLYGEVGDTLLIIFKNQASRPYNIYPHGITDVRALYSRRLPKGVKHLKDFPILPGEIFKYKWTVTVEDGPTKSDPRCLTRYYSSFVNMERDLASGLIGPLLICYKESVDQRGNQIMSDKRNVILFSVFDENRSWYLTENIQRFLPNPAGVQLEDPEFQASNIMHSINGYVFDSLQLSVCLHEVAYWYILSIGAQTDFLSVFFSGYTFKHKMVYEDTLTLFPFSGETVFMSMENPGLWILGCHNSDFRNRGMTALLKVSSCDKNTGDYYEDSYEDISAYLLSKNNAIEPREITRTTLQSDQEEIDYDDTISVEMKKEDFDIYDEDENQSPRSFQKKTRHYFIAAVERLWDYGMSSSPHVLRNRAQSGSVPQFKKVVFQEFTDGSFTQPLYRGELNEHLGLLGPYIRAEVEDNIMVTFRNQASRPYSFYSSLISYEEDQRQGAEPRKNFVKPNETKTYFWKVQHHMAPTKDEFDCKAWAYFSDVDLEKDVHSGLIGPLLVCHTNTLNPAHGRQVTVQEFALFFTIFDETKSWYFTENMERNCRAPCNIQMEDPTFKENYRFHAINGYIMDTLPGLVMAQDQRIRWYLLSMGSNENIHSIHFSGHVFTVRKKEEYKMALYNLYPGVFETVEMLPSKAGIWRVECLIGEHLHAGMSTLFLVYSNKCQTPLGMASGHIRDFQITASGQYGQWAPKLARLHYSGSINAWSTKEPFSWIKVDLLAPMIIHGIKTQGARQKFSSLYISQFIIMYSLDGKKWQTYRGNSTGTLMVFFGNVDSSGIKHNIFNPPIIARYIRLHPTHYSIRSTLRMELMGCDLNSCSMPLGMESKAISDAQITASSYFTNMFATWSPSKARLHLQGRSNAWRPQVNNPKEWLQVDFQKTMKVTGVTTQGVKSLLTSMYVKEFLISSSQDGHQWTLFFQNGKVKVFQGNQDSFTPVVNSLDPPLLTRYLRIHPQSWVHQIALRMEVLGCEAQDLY

With “mAb413, murine monoclonal inhibitory antibody specific for the A2 domain of factor VIII” the Inhibition mAb413 (BU/mg IgG), Bethesda assay [1] was 1470 BU/mg IgG, the MAb413 titer (BU/mg), Bethesda assay [1] was 9400 BU/mg and the Inhibition mAb413 (BU/mg IgG), Bethesda assay [2] was < 0.7 BU/mg IgG. The % Reactivity relative to wild-type [3] was 113%, the MAb413 titer (BU/mg), Bethesda assay [3] was 10700 BU/mg and the Inhibition mAb413 (BU/mg IgG), Bethesda assay [4] was < 0.7 BU/mg IgG. For the same substance, the % Reactivity relative to wild-type [5] was 42%, the MAb413 titer (BU/mg), Bethesda assay [5] was 4000 BU/mg and the Inhibition mAb413 (BU/mg IgG), Bethesda assay [6] was 1170 BU/mg IgG. The % Reactivity relative to wild-type [7] was 1.7%, the MAb413 titer (BU/mg), Bethesda assay [7] was 160 BU/mg and the % Reactivity relative to wild-type [8] was 126%. The MAb413 titer (BU/mg), Bethesda assay [8] was 11900 BU/mg, the Inhibition mAb413 (BU/mg IgG), Bethesda assay [9] was < 0.7 BU/mg IgG and the % Reactivity relative to wild-type [10] was 60%. The MAb413 titer (BU/mg), Bethesda assay [10] was 5620 BU/mg, the % Reactivity relative to wild-type [11] was 6.7% and the MAb413 titer (BU/mg), Bethesda assay [11] was 630 BU/mg. The % Reactivity relative to wild-type [12] was 0.53%, the MAb413 titer (BU/mg), Bethesda assay [12] was 50 BU/mg and the % Reactivity relative to wild-type [13] was < 0.5%. It also gave a reactivity to inhibitor relative to human factor VIII [13] of 0.2%, a % Reactivity relative to wild-type [14] of 37% and an MAb413 titer (BU/mg), Bethesda assay [14] of 3500 BU/mg. The Inhibition mAb413 (BU/mg IgG), Bethesda assay [15] was 1450 BU/mg IgG, the Inhibition mAb413 (BU/mg IgG), Bethesda assay [16] was 1250 BU/mg IgG and the Inhibition mAb413 (BU/mg IgG), Bethesda assay [17] was < 0.7 BU/mg IgG. For the same substance, the % Reactivity relative to wild-type [18] was 0.015%, the MAb413 titer (BU/mg), Bethesda assay [18] was 1.6 BU/mg and the Inhibition mAb413 (BU/mg IgG), Bethesda assay [19] was < 0.7 BU/mg IgG. For the same substance, the Inhibition mAb413 (BU/mg IgG), Bethesda assay [20] was < 0.7 BU/mg IgG and the Inhibition mAb413 (BU/mg IgG), Bethesda assay [21] was < 0.7 BU/mg IgG.
“porcine factor VIIIa A2 domain, isolated from porcine blood (from UniProt P12263 392-759)” showed a Specific Activity (U/mg) of reconstituted fVIIIa, two-stage clotting assay at 1 hour [22] of 70000 U/mg and a Specific Activity (U/mg) of reconstituted hybrid fVIIIa, two-stage clotting assay at 1 hour [23] of 140000 U/mg.
